Test results: patent publication US20240190915

Target: AGR2 (human, endogenous in PDAC cells) (UniProt O95994)

POLR2A (human, endogenous in PDAC cells)
phosphorylation levels of Ser2/5 residues (p-POLR2A^ser2/5) after AGR2 siRNA transfection, western blot: AGR2 downregulation (by siRNA transfection) reduces the phosphorylation levels of Ser2/5 residues (p-POLR2A^ser2/5), but not the POLR2A expression
